Source: the RNAGym collection of RNA variant scans (doi:10.1093/molbev/msab373)

B1: Azoarcus group I ribozyme (parent)
chain: GUGCCUUGCGCCGGGAAACCACGCAAGGGAUGGUGUCAAAUUCGGCGAAACCUAAGCGCCCGCCCGGGCGUAUGGCAACGCCGAGCCAAGCUUCGGCGCCUGCGCCGAUGAAGGUGUAGAGACUAGACGGCACCCACCUAAGGCAAACGCUAUGGUGAAGGCAUAGUCCAGGGAGUGGCGAAAGUCACACAAACCGG

Variants of: B1
Experiment: reverse-splicing fitness (ratio to wild type); higher = more active; in vitro selection; Mg2+ level not given
How it was run: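 An in vitro group I ribozyme library with randomized positions was T7-transcribed and gel-purified. In triplicate, 10 pmol RNA in EPPS pH 7.5 was reacted with 50 pmoles of a 30-nt RNA substrate for 1 h at 37 °C across several added MgCl2 levels (1–48 mM), then stopped with EDTA. Products were reverse transcribed from a substrate-complementary primer, PCR-amplified and sequenced (HiSeq 4000). Fitness is a variant's read proportion after selection over that before, normalised to wild type.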

Row | Variant | reverse-splicing fitness
1 | C82U A120U A145G C150G C169A U176C | 0.00568
2 | C82U A120U A145G C150G C169A U176G | 0.00459
3 | C82U A120U A145G C150G C169G | 0.00646
4 | C82U A120U A145G C150G C169G U176A | 0.00758
5 | C82U A120U A145G C150G C169G U176C | 0.00499
6 | C82U A120U A145G C150G C169G U176G | 0.00346
7 | C82U A120U A145G C150G C169U | 0.00613
8 | C82U A120U A145G C150G C169U U176A | 0.00708
9 | C82U A120U A145G C150G C169U U176C | 0.00545
10 | C82U A120U A145G C150G C169U U176G | 0.00348
11 | C82U A120U A145G C150G U176A | 0.00711
12 | C82U A120U A145G C150G U176C | 0.0113
13 | C82U A120U A145G C150G U176G | 0.00382
14 | C82U A120U A145G C150U | 0.137
15 | C82U A120U A145G C150U C169A | 0.00495
16 | C82U A120U A145G C150U C169A U176A | 0.00476
17 | C82U A120U A145G C150U C169A U176C | 0.00278
18 | C82U A120U A145G C150U C169A U176G | 0.0022
19 | C82U A120U A145G C150U C169G | 0.00546
20 | C82U A120U A145G C150U C169G U176A | 0.00433
21 | C82U A120U A145G C150U C169G U176C | 0.00361

Row | Variant | reverse-splicing fitness
22 | C82U A120U A145G C150U C169G U176G | 0.0018
23 | C82U A120U A145G C150U C169U | 0.00625
24 | C82U A120U A145G C150U C169U U176A | 0.00396
25 | C82U A120U A145G C150U C169U U176C | 0.00389
26 | C82U A120U A145G C150U C169U U176G | 0.00198
27 | C82U A120U A145G C150U U176A | 0.0299
28 | C82U A120U A145G C150U U176C | 0.0607
29 | C82U A120U A145G C150U U176G | 0.0067
30 | C82U A120U A145G C169A | 0.00259
31 | C82U A120U A145G C169A U176A | 0.0025
32 | C82U A120U A145G C169A U176C | 0.00239
33 | C82U A120U A145G C169A U176G | 0.00152
34 | C82U A120U A145G C169G | 0.00532
35 | C82U A120U A145G C169G U176A | 0.00271
36 | C82U A120U A145G C169G U176C | 0.00346
37 | C82U A120U A145G C169G U176G | 0.00136
38 | C82U A120U A145G C169U | 0.00624
39 | C82U A120U A145G C169U U176A | 0.00293
40 | C82U A120U A145G C169U U176C | 0.00381
41 | C82U A120U A145G C169U U176G | 0.00155
42 | C82U A120U A145G U176A | 0.0429

Row | Variant | reverse-splicing fitness
43 | C82U A120U A145G U176C | 0.076
44 | C82U A120U A145G U176G | 0.0114
45 | C82U A120U A145U | 0.181
46 | C82U A120U A145U C150A | 0.0156
47 | C82U A120U A145U C150A C169A | 0.00179
48 | C82U A120U A145U C150A C169A U176A | 0.00221
49 | C82U A120U A145U C150A C169A U176C | 0.00203
50 | C82U A120U A145U C150A C169A U176G | 0.00164
51 | C82U A120U A145U C150A C169G | 0.00199
52 | C82U A120U A145U C150A C169G U176A | 0.00218
53 | C82U A120U A145U C150A C169G U176C | 0.00274
54 | C82U A120U A145U C150A C169G U176G | 0.00147
55 | C82U A120U A145U C150A C169U | 0.0022
56 | C82U A120U A145U C150A C169U U176A | 0.0025
57 | C82U A120U A145U C150A C169U U176C | 0.002
58 | C82U A120U A145U C150A C169U U176G | 0.00172
59 | C82U A120U A145U C150A U176A | 0.00666
60 | C82U A120U A145U C150A U176C | 0.0101
61 | C82U A120U A145U C150A U176G | 0.00379
62 | C82U A120U A145U C150G | 0.0184
63 | C82U A120U A145U C150G C169A | 0.00259

Row | Variant | reverse-splicing fitness
64 | C82U A120U A145U C150G C169A U176A | 0.00252
65 | C82U A120U A145U C150G C169A U176C | 0.00203
66 | C82U A120U A145U C150G C169A U176G | 0.0021
67 | C82U A120U A145U C150G C169G | 0.00248
68 | C82U A120U A145U C150G C169G U176A | 0.00198
69 | C82U A120U A145U C150G C169G U176C | 0.00209
70 | C82U A120U A145U C150G C169G U176G | 0.00173
71 | C82U A120U A145U C150G C169U | 0.00244
72 | C82U A120U A145U C150G C169U U176A | 0.00257
73 | C82U A120U A145U C150G C169U U176C | 0.00297
74 | C82U A120U A145U C150G C169U U176G | 0.00186
75 | C82U A120U A145U C150G U176A | 0.00548
76 | C82U A120U A145U C150G U176C | 0.0104
77 | C82U A120U A145U C150G U176G | 0.00253
78 | C82U A120U A145U C150U | 0.106
79 | C82U A120U A145U C150U C169A | 0.0024
80 | C82U A120U A145U C150U C169A U176A | 0.00262
81 | C82U A120U A145U C150U C169A U176C | 0.00256
82 | C82U A120U A145U C150U C169A U176G | 0.0019
83 | C82U A120U A145U C150U C169G | 0.00432
